Experiment: yeast display, Sf9 membrane polyspecificity reagent, FACS + sequencing; frameworks hold sequencing errors
Method in brief: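 Genes from sorted yeast were amplified by colony PCR, read by MiSeq 2 × 250 sequencing and filtered on CDR length. These cells carried a synthetic nanobody library in Saccharomyces cerevisiae BJ5465 and were sorted by FACS into low and high (top ~1%) gates on anti-HA and streptavidin fluorescence. Polyreactivity is labelled according to the gate of origin.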

Sequence	polyreactivity (PSR sort gate)
QVQLVESGGGLVQAGGSLRFSCAASGRTFFGYAMGWYRQAPGKERELVAAISRGGTTHYADSVKGRFTISRDNAKNTVYLQMNSLKPEDTAVYYCAADGYPYIWSGIEYDYWGQGTQVTVSS	high polyreactivity
QVQLVESGGGLVQAGGSLRFSCAASGRTFGINAMGWYRQAPGKERELVAVITFGDGGTYYADSVKGRFTISRDNAKNTVYLQMNSLNPEDTAVYYCSTDYQSTSVWGGHFVINPYDYWGQGTQVTVSS	low polyreactivity
QVQLVESGGGLVQAGGSLRFSCAASGRTFTYYAMGWYRQAPGKERELVASIRKSGASTYYADSVKGRFTISRDKAKNTVYLQMNSLKPEETAVYYCNTAKGHGRYEYWGQGSQVTVSS	high polyreactivity
QVQLVESGGGLVQAGGSLRFSCAASGRTFYRNVMGWYRQAPGKERELVAVITSGGSTNYADSVKGRFTISRDNAQNTVYLQMNSLKPEDTAVYYCNTALSSRSNKMYYWGQGTQVTVSS	high polyreactivity
QVQLVESGGGLVQAGGSLRFSCAASGRTLVYNGMGWYRPAPGKERELVAAITTDGGDTYYADSVKGRFTISRDNAKNTVYLQMDSLKPEDTAVYYCAADYVALYYWYDYWGQGTQVTVSS	low polyreactivity
QVQLVESGGGLVQAGGSLRFSCAASGSIFDRYAMGWYRQAPGKERELVAAITYSGGSTYYADSVKGRFTISRDNAKNTVYLQMNSLKPEDTAVYYCATETYPQGRYYQSYDYWGQGTQVTVSS	low polyreactivity
QVQLVESGGGLVQAGGSLRFSCAASGSIFQPYAMGWSRQAPGKERAFVAAISRSGGITYYADSVKGRFTISRDNAKNTVYLQMNSLKPEDTAVYYCAADYILWKGSNSYYYAGYYYWGQGTQVTVSS	low polyreactivity
QVQLVESGGGLVQAGGSLRFSCAASGSIFSSYDMGWYRQAPGKERELVAAITRGGTTNYADSVKGRFTISRDNAKNTVYLQMNSLKPEDTAVYYCNVAYGLLGISPGGDYWGQGTQVTVSS	low polyreactivity
QVQLVESGGGLVQAGGSLRFSCAASGSILYGYAIGWYRQAPGQETELVAAIRLTGGSTYYADSVKGRFTISRDNAKNTVYLQMNSLKPEDTAVYYCAAEYNLRNYWGDYWGQGTLVTVSS	low polyreactivity
QVQLVESGGGLVQAGGSLRFSCAASGSISSQYGMGWYRQEPGKVRELVATIRDGGPTNYADSVKGRFTISRDNAKYTVYLQMNSLKPEDTAVYSCAALYWYYYTWPLYDYWGQGTQVTVSS	low polyreactivity
QVQLVESGGGLVQAGGSLRFSCAASGSTFKRYTMGWYRQAPGKERELVAAISTSSGSTYYADSVKGRFTISRDNAKNSVYLQMHSLKPEDTAVYYCAAVRLRQTYPKYNYWGQGTQVTVSS	high polyreactivity
QVQLVESGGGLVQAGGSLRFSCAASGSTFTTNVMGWYRQAPGKERELVAAISHRGGSTYYADSVKGRFTMSRDNAKNTVYLQMNSLKPEDTAVYYCAAPGWERYGYWGQGTQVTVSS	low polyreactivity
QVQLVESGGGLVQAGGSLRFSCAASGSTFYLYDMGWYRQAPGQERELVAVISWSGGSTSYADSVKGRFTISRDNAKNTIYLQMYSLKPEDTAVYYCTTDFYHWGQGTQVTVSS	low polyreactivity
QVQLVESGGGLVQAGGSLRFSCAASGYIFSLNGRGWYRQAPGKERELVAAISSSGGRTYYADSVKGRFTISRDNAKNTVYLQMNSLKPEDTAVYYCAAEVYLSTYYQDMNYWGQGTQVTVSS	high polyreactivity
QVQLVESGGGLVQAGGSLRFSCAASRSIFFWYTMGWYRQAPGKYRELVATITGSGSSTTYADSVKGRFTISRDNAKNTVYLQMNSLKPEDTAVYYCAAADIIDHSFPYDYWGQGTQVTVSS	low polyreactivity
QVQLVESGGGLVQAGGSLRFSCAATGSIFVVNAMGWYRQAPGKERELVASITWSGDNTYYADSVKGRFTISRDNAKNTVYLQMNSLKPEDTAVYYCAATIWIAYRGWYSDYNYWGQGTQVTVSS	low polyreactivity
QVQLVESGGGLVQAGGSLRFSCAAYGSISRYYAMGWYRLAPGKERELVAAISSNGGSTYYADSVKGRFTISRDNAKNTVYLQMNSLKPEDTAVDDCAAESDYFRYDYWGQGTQVTVSS	high polyreactivity
QVQLVESGGGLVQAGGSLRFSCPASGSIFPAYARGWYRQAPGKERELVAAITRGGSTDYADSVKGRFTISRDNAKNTVYLQMNSLKPEDTAVYYCAKRGYYYYHYVSGKPEDYWGQGTQVTVSS	low polyreactivity
QVQLVESGGGLVQAGGSLRFSSPASGLTFGTYAMGWYRQAPGKERELVAAISTSGVRTYYADSVKGRFTISRDIAKNTVYLQMNSLKPEDTAVYYCAARYNRAYSRDYWGQGSQVTVSS	high polyreactivity
QVQLVESGGGLVQAGGSLRIICAASGSIFVEYAMGWYRQAPGKERELVAAITYRGGSTYYADSVKGRFTISRDNAENTVYLQMNSLKPEDTAVYYCAAAVYYWGTSAYEYWGQGTQVTVSS	low polyreactivity
QVQLVESGGGLVQAGGSLRIRCAASGRIFDTYAMGWYRQAPGKEREFVATISWDSASTYYADSVKGRFTISRDNAKNTVYLQMNSLKPEDTAVDYCAAGGSSSWAFNYWGQGTQLTVSS	low polyreactivity
QVQLVESGGGLVQAGGSLRISCAASASIFPGYAMGWYRQAPGKERELVAAISWSGGRTYYADSVKGRFTISRDNSKNTFYLQMNSLKPEDTAVYYCAARKYHLRSAYDYWGQGTQVTVSS	low polyreactivity

Sequence	polyreactivity (PSR sort gate)
QVQLVESGGGLVQAGGSLRISCAASGFIFRYNAMGWYRQAPGKERELVAAINSGDSTNYADSVKGRFTISRDNAKNTVYLQMNSLKPEDTAVYYYWGQGTQVTVSS	low polyreactivity
QVQLVESGGGLVQAGGSLRISCAASGFSCRQYAMGWYRQAPGKERELVAAISSSGGRTYYADSVKGRFTISRDNAKNTVYLQMNSLKPEDTAVYYCIARAWLRVEYGEGYWGQGTQVTVSS	high polyreactivity
QVQLVESGGGLVQAGGSLRISCAASGFTFPIYAMGWYRKAPGKEREFVAAITASGDNTYYADSVKGRFTISRDNAKNTVYLQMNSLKPEDSAVYYCAADWFVDWWEYDYWGQGTQVTVSS	low polyreactivity
QVQLVESGGGLVQAGGSLRISCAASGFTFVAYAMGWYRKAPGKERELVAAISRRGGTTYYADSVKGRFTISRDNAKNTVYLQMNSLKPEDTAVYYCNARGFPGKFGYWGQGTQVTVSS	high polyreactivity
QVQLVESGGGLVQAGGSLRISCAASGFTFYRYAMGWSIPAPGKERELVAAISSHGDSTYYADSVKGRFTISRDNAKNTVYLQMNSLKPEDTAVYYCNVETLYGYFLHFYLRYYHWGQGTQVTVSS	high polyreactivity
QVQLVESGGGLVQAGGSLRISCAASGFTFYSNDMGWYRQAPGKERELVAAISYSGGSTYYADSVKGRFTISRDNAKNTVYLQMNSLKPEDTAVYYCAAGGLQQGDYWGQGTQVTVSS	low polyreactivity
QVQLVESGGGLVQAGGSLRISCAASGGNFDSNAMGWTRPAPGKVRELVAAISDSGGSTYYADSVKGRFTISRDNAYNTVYLQMNSLKPEDTAVYYCAADSDYHFVNYRFGMDYWGQGTQVTVSS	low polyreactivity
QVQLVESGGGLVQAGGSLRISCAASGIFPAYDMGWYRQAPGKERELVASISSDGSTYYADSVKGRFTISRDNAKNTVYLQMNSLKPEDTAVYYCNDVAIEPYYYVVYDIFDYWGQGTQVTVSS	low polyreactivity
QVQLVESGGGLVQAGGSLRISCAASGIIFAANTMGWYRQAPGKERELVAAITSGGSTKYADSVKGRFTISRDNAKNTVYLQMNSLKPEDTAVYYCAAQYRYQRYSYAMEYWGQGTQVTVSS	high polyreactivity
QVQLVESGGGLVQAGGSLRISCAASGIIFDTNAMGWYRQAPGKERELVATITQRGGTTYYADSVKGRFTISRDNAKNTVYLQMNSLKPEDTAVYYCAKDYWFGYEYWGQGTQVTVSS	low polyreactivity
QVQLVESGGGLVQAGGSLRISCAASGITFNVNAMGWSRQAPGKERELVARITTSGGSTSYADSVKGRFTISRDNAKNTVYLQMNSLKPEDTAVYYCAADRARYYSEYDYWGQGTQVTVSS	low polyreactivity
QVQLVESGGGLVQAGGSLRISCAASGITFSYYAMGWYTPAPGKERELVAAINSGGGSTYYADSVKGRFTISRDNAKNTVYLQMNSLKPEDTAVYYCSARYRSRYDYYYDRDYWGQGTQVTVSS	low polyreactivity
QVQLVESGGGLVQAGGSLRISCAASGITFYGYAMGWYRQAPGKERELVATISKSGGITSYADSVKGRFSISRDNAKNTVYLQMNSLKPEETAVYYCNRGKSYGGYDYWGQGTQVTVSS	low polyreactivity
QVQLVESGGGLVQAGGSLRISCAASGLIFGRYAMGWYRQAPGKERELVAAISSSGVRTYYADSVKGRFTISRDNAKNTVYLQMNSLKPEDTAVYYCAAAYWSSREDTVIKRYYWGQGTQVTVSS	high polyreactivity
QVQLVESGGGLVQAGGSLRISCAASGLIFYSYAMGWYRQAPGKERELVAAISSGTRTYYADSVKGRFTISRDNAKNTVYLQMNSLKPEDTAVYYCAAVDAHKKRYPPSGRLYGYWGQGTQVTVSS	high polyreactivity
QVQLVESGGGLVQAGGSLRISCAASGLIIAYAMGWYRPAPGKERELVAASSGRDGSTYYADSVKGRFTISRDNAKNTVYLHMNSLKPEATAVYYCAKRISYLPVEMDYWGQGTQLTVSS	low polyreactivity
QVQLVESGGGLVQAGGSLRISCAASGLTILFYAMAWYRQAPGKERELVASIRWSDGRTYYADSVKGRFTISRDNAKNTVYLQMNSLKPEDTAVYYCAARSYLTPEYYYWGQGTQVTVSS	high polyreactivity
QVQLVESGGGLVQAGGSLRISCAASGLTSPIYAMGWYRQAPGKERELDAAISKNGGSTYYADSVKGRFTISRDNAKNTVYVQMNSLKPEDTAVYYCNAVVYHYTLDHEYDYWGQGTQVTVSS	high polyreactivity
QVQLVESGGGLVQAGGSLRISCAASGLYAMGWYRQAPGKERELVADINSSGGSITNYADSVKGRFTISRDNAKNTVYLQMNSLKPEDTAVYYCNPDVPGDTGWWGFDYWGQGTQVTVSS	low polyreactivity
QVQLVESGGGLVQAGGSLRISCAASGNTFWKYAMGWYRQAPGKERELVAAISKSGGSTYYADSVKGRFTISRDNAKNTVYLQMNSLKPEDTAVYYCAAVNYRWYSRNYDHYYWGQGTQVTVSS	high polyreactivity
QVQLVESGGGLVQAGGSLRISCAASGRIFGANAMGWYRQAPAKERELVAAITSSGGNTYYADSVKGRFTISRDNAKNTVYLQMNCLKPEDTAVYYWSARSRWVSYNYWGQGTQVTVSS	high polyreactivity

Source: the nanobody polyreactivity screen of Harvey et al. (2022)
